Measured values: PMC3458955 (2012)

Target: CXCL12α (Homo sapiens, UniProt P48061)
Test: total internal reflection ellipsometry (TIRE) on Ishikawa cell membranes; given as Ka

- Kd: 0.714 nM
B1: CXCR4 (protein)
chain: MEGISIYTSDNYTEEMGSGDYDSMKEPCFREENANFNKIFLPTIYSIIFLTGIVGNGLVILVMGYQKKLRSMTDKYRLHLSVADLLFVITLPFWAVDAVANWYFGNFLCKAVHVIYTVNLYSSVLILAFISLDRYLAIVHATNSQRPRKLLAEKVVYVGVWIPALLLTIPDFIFANVSEADDRYICDRFYPNDLWVVVFQFQHIMVGLILPGIVILSCYCIIISKLSHSKGHQKRKALKTTVILILAFFACWLPYYIGISIDSFILLEIIKQGCEFENTVHKWISITEALAFFHCCLNPILYAFLGAKFKTSAQHALTSVSRGSSLKILSKGKRGGHSSVSTESESSSFHSS
